This note sets out measurements from US20230183336A1 (MODMAB THERAPEUTICS, published 2023).

Experiment [1] concerns the target T1, recombinant mouse LRP5-His chimera (mouse, UniProt Q91VN0 31-1383).
T1 construct: extracellular domain; also called ECD of mouse LRP5; not shown: His tag
T1 sequence (looked up): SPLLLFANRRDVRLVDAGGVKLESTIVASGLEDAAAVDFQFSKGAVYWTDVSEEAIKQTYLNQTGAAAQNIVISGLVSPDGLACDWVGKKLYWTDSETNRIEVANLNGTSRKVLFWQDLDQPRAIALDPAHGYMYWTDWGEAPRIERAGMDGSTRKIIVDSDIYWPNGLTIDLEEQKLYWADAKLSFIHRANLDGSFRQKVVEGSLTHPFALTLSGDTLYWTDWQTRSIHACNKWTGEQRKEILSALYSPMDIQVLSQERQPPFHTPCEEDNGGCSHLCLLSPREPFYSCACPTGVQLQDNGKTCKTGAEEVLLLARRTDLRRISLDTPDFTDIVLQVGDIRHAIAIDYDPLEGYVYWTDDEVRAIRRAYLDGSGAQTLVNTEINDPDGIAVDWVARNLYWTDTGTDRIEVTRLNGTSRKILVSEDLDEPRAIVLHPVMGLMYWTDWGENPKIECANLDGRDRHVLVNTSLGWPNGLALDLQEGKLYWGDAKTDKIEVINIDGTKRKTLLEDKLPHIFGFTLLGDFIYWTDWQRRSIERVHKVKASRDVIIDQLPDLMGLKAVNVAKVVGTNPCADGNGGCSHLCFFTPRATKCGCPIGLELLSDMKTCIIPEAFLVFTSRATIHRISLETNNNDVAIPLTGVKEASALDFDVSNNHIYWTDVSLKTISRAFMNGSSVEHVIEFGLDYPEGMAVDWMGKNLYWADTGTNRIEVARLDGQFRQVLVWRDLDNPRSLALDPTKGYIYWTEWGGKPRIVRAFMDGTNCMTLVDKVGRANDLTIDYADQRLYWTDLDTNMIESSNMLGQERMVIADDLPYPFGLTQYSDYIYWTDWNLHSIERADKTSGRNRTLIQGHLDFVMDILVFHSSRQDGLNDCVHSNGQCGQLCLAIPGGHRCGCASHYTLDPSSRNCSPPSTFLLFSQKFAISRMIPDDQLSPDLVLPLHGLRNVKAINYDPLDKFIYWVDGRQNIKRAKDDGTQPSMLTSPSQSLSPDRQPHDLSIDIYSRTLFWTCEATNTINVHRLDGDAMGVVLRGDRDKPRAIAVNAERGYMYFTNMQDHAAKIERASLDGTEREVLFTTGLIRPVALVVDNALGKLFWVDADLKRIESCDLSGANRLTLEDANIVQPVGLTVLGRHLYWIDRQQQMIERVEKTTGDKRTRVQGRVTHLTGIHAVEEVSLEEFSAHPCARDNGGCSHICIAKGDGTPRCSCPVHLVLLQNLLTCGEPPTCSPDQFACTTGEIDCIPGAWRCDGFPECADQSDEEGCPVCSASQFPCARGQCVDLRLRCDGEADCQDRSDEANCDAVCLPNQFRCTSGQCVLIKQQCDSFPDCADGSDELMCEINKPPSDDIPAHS
Description: single-point ELISA, coated antigen, purified Fab or IgG1, anti-kappa-HRP. How it is done: (§1) FIGS. 1A and 1B show sixteen (16) anti-LRP antibodies. (A) The amino acid sequences of the complementarity determining regions (CDR) of the heavy (H) and the light (L) chains are presented. The antibodies were grouped into unique epitopes as determined by competitive ELISAs. (B) Single-point ELISAs were performed on 96-well Maxisorb immune plates coated with ECD's of mouse LRP5, mouse LRP6 and human LRP6 chimeras. The plates were incubated with the purified Fab or IgG1 at the concentrations indicated followed by incubation with horseradish peroxidase (HRP)-conjugated anti-kappa antibody. The wells were washed eight times followed by incubation with 3,3′,5,5′-tetramethylbenzidine/H₂O₂ peroxidase (TMB) substrate for 5-10 min. The reaction was stopped by adding 1M H₃PO₄ and the absorbance was measured spectrometrically at 450 nm in a microtiter plate reader. FIG. 1A discloses “SSVA” as SEQ ID NO: 34, and “SASSLYS” as SEQ ID NO: 35, as well as SEQ ID NOS 36-49, 51, 44, 2-4, 4, 5-7, 5, 4, 5, 8-10, 4, 52, 55, 11-16, 15, 15, 13, 17-20, 13, 53, 56, 21-23, 22, 24-33, 54, 57, respectively, in order of columns.
(§2) The full length IgG1s and the antibody fragments (Fabs) were purified and a single-point ELISA was done to determine the specificity of the antibodies. […] A multipoint competitive ELISA was used to determine the relative affinities of the antibodies to the recombinant antigen.
(In an ELISA, binding on a coated surface is turned into a signal by an enzyme label.)

The target of experiment [2] is T2, recombinant mouse LRP6-His chimera (mouse, UniProt O88572 20-1370).
T2 construct: extracellular domain; also called ECD of mouse LRP6; not shown: His tag
T2 sequence (looked up): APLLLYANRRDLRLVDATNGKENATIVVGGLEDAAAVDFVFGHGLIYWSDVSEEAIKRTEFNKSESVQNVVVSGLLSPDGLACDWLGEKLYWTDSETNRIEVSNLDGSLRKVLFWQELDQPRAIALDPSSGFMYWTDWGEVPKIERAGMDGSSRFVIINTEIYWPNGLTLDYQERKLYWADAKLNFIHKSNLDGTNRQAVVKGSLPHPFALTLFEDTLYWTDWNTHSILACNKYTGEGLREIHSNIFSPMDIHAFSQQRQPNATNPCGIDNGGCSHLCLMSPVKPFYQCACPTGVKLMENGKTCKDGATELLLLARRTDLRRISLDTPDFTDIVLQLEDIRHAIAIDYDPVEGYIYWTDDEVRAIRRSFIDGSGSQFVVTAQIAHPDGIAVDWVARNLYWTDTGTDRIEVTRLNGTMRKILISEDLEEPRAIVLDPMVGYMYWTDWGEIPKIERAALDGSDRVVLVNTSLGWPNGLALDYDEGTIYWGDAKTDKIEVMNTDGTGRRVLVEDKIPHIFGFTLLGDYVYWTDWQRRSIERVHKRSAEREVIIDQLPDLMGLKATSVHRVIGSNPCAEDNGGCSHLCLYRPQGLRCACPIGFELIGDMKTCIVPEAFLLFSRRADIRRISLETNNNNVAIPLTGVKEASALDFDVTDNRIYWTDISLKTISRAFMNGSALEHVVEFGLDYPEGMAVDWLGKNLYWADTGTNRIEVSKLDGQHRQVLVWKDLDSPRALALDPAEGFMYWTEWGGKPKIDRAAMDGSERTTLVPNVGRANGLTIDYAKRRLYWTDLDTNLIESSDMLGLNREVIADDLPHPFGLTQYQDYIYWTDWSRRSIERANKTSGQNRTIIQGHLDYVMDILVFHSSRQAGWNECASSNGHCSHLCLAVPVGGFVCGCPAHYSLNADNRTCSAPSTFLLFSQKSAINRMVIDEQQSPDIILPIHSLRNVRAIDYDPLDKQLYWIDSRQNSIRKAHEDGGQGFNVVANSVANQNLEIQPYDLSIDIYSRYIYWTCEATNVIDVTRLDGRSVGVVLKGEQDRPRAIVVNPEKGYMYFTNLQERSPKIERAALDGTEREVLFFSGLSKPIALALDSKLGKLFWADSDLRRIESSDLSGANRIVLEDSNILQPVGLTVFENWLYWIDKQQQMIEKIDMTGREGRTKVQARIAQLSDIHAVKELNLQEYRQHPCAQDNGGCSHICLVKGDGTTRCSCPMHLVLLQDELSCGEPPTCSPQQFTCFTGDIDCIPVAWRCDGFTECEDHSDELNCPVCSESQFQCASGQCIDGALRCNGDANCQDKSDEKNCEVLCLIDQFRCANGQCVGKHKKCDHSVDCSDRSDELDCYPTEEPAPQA
The experiment is described as above. As for the experimental part:
as §1, §2

B1: LRP5-R3O_D3 (antibody, V domains shown)
VH: EVQLVESGGGLVQPGGSLRLSCAASGFNFSSSSIHWVRQAPGKGLEWVASISSSYGYTYYADSVKGRFTISADTSKNTAYLQMNSLRAEDTAVYYCARSWAMDYWGQGTLVTVSS
VL: DIQMTQSPSSLSASVGDRVTITCRASQSVSSAVAWYQQKPGKAPKLLIYSASSLYSGVPSRFSGSRSGTDFTLTISSLQPEDFATYYCQQYWAYYSPITFGQGTKVEIKR
notes: Fab-phage in the screen; also called LRP5-R30_D3; LRP5-R30D3
Regarding B1, the binding result in experiment [1] and in experiment [2] was “binds” throughout.
